Assay results taken from patent publication US20220332804A1 (CSL INNOVATION, published 2022).
Residue numbers refer to the chain shown, from its start.

What was measured:
Assay in all cases: SPR, KD relative to WT C2;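 note: biacore SPR at 37 °C, anti-C2 mAbs captured on anti-human IgG chips with alanine or serine point mutants of C2 as analyte, KD from 1:1 fit compared with wild-type C2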
human C2 R688A = molecular target: T1, human C2 R688A (human, UniProt P06681 21-752)
T1 sequence: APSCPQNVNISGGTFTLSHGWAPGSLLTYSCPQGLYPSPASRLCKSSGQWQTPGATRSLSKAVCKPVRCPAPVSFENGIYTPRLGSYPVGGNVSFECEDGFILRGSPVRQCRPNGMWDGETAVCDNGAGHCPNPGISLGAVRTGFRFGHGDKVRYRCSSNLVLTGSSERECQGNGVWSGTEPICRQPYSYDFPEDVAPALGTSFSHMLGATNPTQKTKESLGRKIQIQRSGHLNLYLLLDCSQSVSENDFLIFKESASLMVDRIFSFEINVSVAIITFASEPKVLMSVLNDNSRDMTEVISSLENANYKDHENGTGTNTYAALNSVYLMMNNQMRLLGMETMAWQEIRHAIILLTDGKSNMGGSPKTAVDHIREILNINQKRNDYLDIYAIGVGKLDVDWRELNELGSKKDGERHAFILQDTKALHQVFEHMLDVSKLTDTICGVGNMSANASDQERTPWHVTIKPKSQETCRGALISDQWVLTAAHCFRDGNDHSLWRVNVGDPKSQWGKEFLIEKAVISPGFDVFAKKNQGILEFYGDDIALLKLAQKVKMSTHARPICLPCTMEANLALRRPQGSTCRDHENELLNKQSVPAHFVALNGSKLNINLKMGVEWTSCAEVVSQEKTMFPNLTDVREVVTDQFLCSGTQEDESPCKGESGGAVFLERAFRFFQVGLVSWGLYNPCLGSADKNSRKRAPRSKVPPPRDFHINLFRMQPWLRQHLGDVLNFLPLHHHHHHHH

human C2 A472S = molecular target: T2, human C2 A472S (human, UniProt P06681 21-752)
T2 sequence: T1 sequence with A452S, A668R

human C2 A326S = molecular target: T3, human C2 A326S (human, UniProt P06681 21-752)
T3 sequence: T1 sequence with A306S, A668R

human C2 H446A = molecular target: T4, human C2 H446A (human, UniProt P06681 21-752)
T4 sequence: T1 sequence with H426A, A668R

B1: RF16-242 (antibody, human IgG4 S228P, lambda, V domains shown)
VH: EVQLLQSGAEVKKPGESLKISCKGSGYSFTSYWIGWVRQMPGKGLEWMGIIYPGDSDTRYSPSFQGQVTISADKSISTAYLQWSSLKASDTAMYYCARRGHYGDYFDYWGQGTLVTVSS
VL: SYELTQPPSVSVSPGQTARITCSGDALPKKYAYWYHQKSGQAPVLVIYEDRRRPSEIPERFSGSSSGTMATLTITGAQVEDEGVYFCYSRDRAGNQRVFGGGTQLTVLG
notes: pH-dependent anti-C2 antibody from a phage display library
- Fold diff (human C2 R688A): 2 fold
- Fold diff (human C2 A472S): 7 fold
- Fold diff (human C2 A326S): 1 fold
- Fold diff (human C2 H446A): 2 fold
